Measured values as given in patent US20190248863A1.
Each block holds one binder with its values, some of them ahead of it. Positions of bridges follow the written chain, without caps; N, C: chain ends. Chains are numbered I, II in the order given. No end group written: not given here.

Biological target: human RXFP2 (human), Q8WXD0
Assay: cell-based or functional assay

Chain of human RXFP2 (human), Q8WXD0 (Q8WXD0 whole entry): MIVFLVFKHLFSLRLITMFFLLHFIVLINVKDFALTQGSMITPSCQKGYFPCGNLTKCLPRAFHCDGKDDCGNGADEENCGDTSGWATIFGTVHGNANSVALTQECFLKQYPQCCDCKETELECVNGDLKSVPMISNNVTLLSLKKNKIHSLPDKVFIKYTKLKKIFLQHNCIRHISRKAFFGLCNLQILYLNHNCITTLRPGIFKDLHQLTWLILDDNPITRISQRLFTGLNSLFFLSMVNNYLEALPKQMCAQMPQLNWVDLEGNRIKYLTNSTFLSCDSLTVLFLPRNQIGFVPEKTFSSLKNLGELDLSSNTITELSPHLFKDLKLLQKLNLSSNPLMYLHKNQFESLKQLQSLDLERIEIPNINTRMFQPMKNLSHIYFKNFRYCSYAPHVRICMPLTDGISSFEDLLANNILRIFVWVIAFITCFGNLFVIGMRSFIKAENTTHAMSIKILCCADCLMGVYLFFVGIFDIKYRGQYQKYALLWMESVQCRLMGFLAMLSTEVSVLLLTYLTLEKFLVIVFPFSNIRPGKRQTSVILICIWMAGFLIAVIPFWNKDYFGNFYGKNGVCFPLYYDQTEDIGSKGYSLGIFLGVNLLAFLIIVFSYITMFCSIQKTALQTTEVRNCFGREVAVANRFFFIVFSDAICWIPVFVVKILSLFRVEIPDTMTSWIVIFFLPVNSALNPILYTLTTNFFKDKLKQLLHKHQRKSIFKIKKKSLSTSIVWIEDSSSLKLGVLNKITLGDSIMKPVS

cAMP Assay EC50 (nM), human RXFP2/CHO-K1 cells: 5.5 nM
fold less potent than INSL3 (cAMP assay EC50, human RXFP2/CHO-K1 cells): 10 fold
B1: wild-type human relaxin 2 (WT-RLX) (ligand)
chain 1: QLYSALANKCCHVGCTKRSLARFC
chain 2: DSWMEEVIKLCGRELVRAQIAICGMSTWS
modifications: disulfide I:10-I:15, I:11-II:11, I:24-II:23

Maximal cAMP stimulation by RLX-A-AQ1-20KPEG compared to WT-RLX (percent), AVG, hRXFP2: 99%
Potency Ratio (RLX-A-AQ1-20KPEG/WT-RLX), cAMP assay: 32 fold
RLX-A-AQ1-20KPEG Potency Ratio (hRXFP1-1.0), cAMP assay: 54 fold
cAMP Assay EC50 (nM), human RXFP2/CHO-K1 cells: 174 nM
B2: RLX-A-AQ1-20KPEG (ligand)
chain 1: XLYSALANKCCHVGCTKRSLARFC
chain 2: ASWMEEVIKLCGRELVRAQIAICGMSTWS
modifications: here or on the partner: para-acetylphenylalanine (pAcF, X) at position 1 of the A chain, linked to a 20 kDa PEG via an oxime linkage
